Numbering of substitutions follows the chain as printed.
Tests used:
Details in all cases: protein: recombinant; tags: MBP; label: 32P
MBP-SUV39H1 42-106 R84A [1] = target: T1, MBP-SUV39H1 42-106 R84A (Homo sapiens, UniProt O43463 42-106, R84A); assay: EMSA; 20 mM Tris-HCl pH 7.4, 50 mM NaCl, 10% glycerol, ~4 U RNase inhibitor, room temperature 10 min; native gel 0.5X TBE at 25 C; filter binding on nitrocellulose in the same buffer
T1 sequence: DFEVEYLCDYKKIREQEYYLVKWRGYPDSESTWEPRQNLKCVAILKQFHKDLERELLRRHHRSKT

MBP-SUV39H1 42-106 R55A [2] = target: T2, MBP-SUV39H1 42-106 R55A (Homo sapiens, UniProt O43463 42-106, R55A); assay: as above
T2 sequence: T1 sequence with R14A, A43R

MBP-SUV39H1 42-106 R84A [3] = target: T1, MBP-SUV39H1 42-106 R84A; assay: filter binding; 20 mM Tris-HCl pH 7.4, 50 mM NaCl, 10% glycerol, ~4 U RNase inhibitor, room temperature 10 min; native gel 0.5X TBE at 25 C; filter binding on nitrocellulose in the same buffer
MBP-SUV39H1 42-106 R55A [4] = target: T2, MBP-SUV39H1 42-106 R55A; assay: as above

Measured: binding signal

B1: sense 19mer ssRNA (ssRNA)
RNA: AUAUGGGAACCACUGAUCC
> 40 fold lower affinity than WT: all assays above
